Substrate in this data set: C/C=C1/[C@H](O[C@@H]2O[C@H](CO)[C@@H](O)[C@H](O)[C@H]2O)OC=C(C(=O)OC)[C@H]1CC(=O)OCCc1ccc(O)c(O)c1
Description: HPLC determination of hydrolysed oleuropein. It is filed as biochemical, Olea europaea. The note with it: free purified recombinant enzyme; standard assay.

This is an account of results in paper PMC5682033, “An Oleuropein β-Glucosidase from Olive Fruit Is Involved in Determining the Phenolic Composition of Virgin Olive Oil” (Frontiers in Plant Science, 2017).

B1: OepGLU (recombinant olive β-glucosidase) (Olea europaea) (protein)
chain: MDIQSNVLTITSGSSPTDTSSNGQAAKSTKERIKRSDFPSDFVFGAATASYQVEGAWNEGGKGMSNWDYFTQSQPGGISDFSNGTIAIDHFNMFKDDVVVMKKLGLKAYRFSLSWPRILPGGRLCHGVSKEGVQFYNDLIDALLAADIEPYITIFHWDIPQCLQLEYGGFLHERVVQDFIEYSEICFWEFGDRVKYWITLNEPWSFTVQGYVAGAFPPNRGVTPKDTEETKKHARLHRGGGKLLTAFKYGNPGTEPYKVAHNLILCHAHAVDIYRTKYQESQGGKIGITNCISWNEPLTDSQEDKDAATRGNDFMLGWFVEPVVTGEYPESMIKNVGDRLPKFSEKEEKLVKGSYDFLGINYYTSTYTSDDPTKPTTDSYLTDSRTKTSHERNKVPIGAQAGSDWLYIVPWGIYRVMVDMKKRYNDPVIYITENGVDEVNDKSKTSTEALKDDIRIHYHQEHLYYLKLAMDQGVNLKGYFIWSLFDNFEWAAGFSVRFGVMYVDYANGRYTRLPKRSAVWWRNFLTKPTAVPLKNEPEKSEDRRKRLRGST
As usually defined, the Km is the concentration of substrate that gives half-maximal velocity. In the case of B1, the Km is reported as 26.8 mM.
